According to patent publication US20060073572A1, “Cytokine structurally related to IL-17” (The Johns Hopkins University, priority 2001, published 2006):
Entries after “also recorded” stand apart in the source; their conditions may differ.

Test system: IL-6
Experiment: IL-6 expression in HUVECs (ELISA, RT-PCR)
Type: cell-based, human
Conditions: ML-1 10 and 100 ng/ml, 24 and 48 hours, ELISA
Method: FIG. 5. Analysis of IL-6 (FIG. 5A) and IL-8 (FIG. 5B) expression in primary bronchial epithelial cells (PBECs) and human umbilical vein endothelial cells (HUVECs) stimulated by ML-1. The IL-6 and IL-8 protein release in the supernatant was determined by ELISA as described in Example 8. The results were expressed as mean+SD (n=6). *p<0.05 was considered significant vs control.
FIG. 7A-7D. Effect of PD98059 on IL-6 (FIG. 7A) and IL-8 (FIG. 7B) protein production in PBECs and HUVECs. The cells were preincubated with varying concentrations of PD98059, SB202190, or DMSO vehicle control for 1 hour, followed by stimulation with ML-1 (100 ng/ml) for 24 hours. The results are expressed as the mean+SD (n=6). *P<0.05 when compared to cultures without the addition of PD98059. FIGS. 7C and 7D. Semi-quantitative analysis of gene expression for IL-6 (FIG. 7C) and IL-8 (FIG. 7D) by RT-PCR. The cells were preincubated as described above and treated with ML-1 for 4 hours. RT-PCR was performed as described in Example 8. The results shown are representative of three separate experiments.
Human umbilical vein endothelial cells (HUVECs) were obtained from Clonetics and cultured in endothelial cell growth media (EGM; Clonetics) containing 12 μg/ml bovine brain extract, 10 ng/ml EGF, 1 μg/ml hydrocortisone, 50 μg/ml gentimicin, 50 ng/ml amphotericin B, and 5% FBS amphotericin-B (Clonetics).
PBECs and HUVECs were treated with ML-1 100 ng/ml of ML-1 for various time points. Total RNA was extracted using RNeasy (Qiagen) from 1×10^6 cells 4 hours after stimulation or exchange of media. […]
The amplification reaction was performed for 23 cycles with denaturation at 94° C. for 45 seconds, annealing at 56° C. for 45 seconds, and extension at 72° C. for 45 seconds. PCR products were detected by ethidium bromide staining and normalized by the intensity of an amplified housekeeping gene, G3PDH (see above). […] IL-6 and IL-8 protein levels in the collected supernatants were determined with a commercially available ELISA kit (Biosource, Camarillo, Calif.) according to the manufacturer's instructions.

B1: ML-1: new member of the IL-17 cytokine family, SEQ ID NO:2; His-tagged recombinant protein expressed in COS-7 cells and affinity purified (protein, listed as Homo sapiens)
chain: MKLDIGIINENQRVSMSRNIESRSTSPWNYTVTWDPNRYPSEVVQAQCRNLGCINAQGKEDISMNSVPIQQETLVVRRKHQGCSVSFQLEKVLVTVGCTCVTPVIHHVQ
modifications: His tag
Question: How did the IL-6 production turn out when B1 was run?
Answer: time-dependent increase; also recorded: significantly induced
